Results: paper PMC2859985 (Virus research, 2010)

T1: importin alpha 3, His-tagged (human, UniProt O00629 1-521)
T1 sequence (looked up): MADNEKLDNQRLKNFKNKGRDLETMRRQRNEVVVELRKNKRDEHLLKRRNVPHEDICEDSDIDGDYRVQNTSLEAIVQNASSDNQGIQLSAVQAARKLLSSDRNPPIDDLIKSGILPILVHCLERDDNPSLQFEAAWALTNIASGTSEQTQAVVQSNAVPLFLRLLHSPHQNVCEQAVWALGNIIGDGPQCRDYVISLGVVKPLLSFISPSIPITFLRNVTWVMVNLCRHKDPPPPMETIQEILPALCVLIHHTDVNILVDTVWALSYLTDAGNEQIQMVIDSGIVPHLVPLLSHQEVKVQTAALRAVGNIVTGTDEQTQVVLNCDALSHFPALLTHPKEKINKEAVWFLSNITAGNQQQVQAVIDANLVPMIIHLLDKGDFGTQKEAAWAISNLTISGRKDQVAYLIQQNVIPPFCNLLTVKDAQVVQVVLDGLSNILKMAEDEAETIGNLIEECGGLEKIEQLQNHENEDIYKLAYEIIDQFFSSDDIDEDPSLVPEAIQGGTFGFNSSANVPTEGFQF


Assays:
[1] = biological target: T1, importin alpha 3, His-tagged; assay: pull-down
[2] = biological target: importin alpha 5, His-tagged (human, UniProt P52294 1-538); assay: pull-down
Sequence of importin alpha 5, His-tagged (P52294 whole entry): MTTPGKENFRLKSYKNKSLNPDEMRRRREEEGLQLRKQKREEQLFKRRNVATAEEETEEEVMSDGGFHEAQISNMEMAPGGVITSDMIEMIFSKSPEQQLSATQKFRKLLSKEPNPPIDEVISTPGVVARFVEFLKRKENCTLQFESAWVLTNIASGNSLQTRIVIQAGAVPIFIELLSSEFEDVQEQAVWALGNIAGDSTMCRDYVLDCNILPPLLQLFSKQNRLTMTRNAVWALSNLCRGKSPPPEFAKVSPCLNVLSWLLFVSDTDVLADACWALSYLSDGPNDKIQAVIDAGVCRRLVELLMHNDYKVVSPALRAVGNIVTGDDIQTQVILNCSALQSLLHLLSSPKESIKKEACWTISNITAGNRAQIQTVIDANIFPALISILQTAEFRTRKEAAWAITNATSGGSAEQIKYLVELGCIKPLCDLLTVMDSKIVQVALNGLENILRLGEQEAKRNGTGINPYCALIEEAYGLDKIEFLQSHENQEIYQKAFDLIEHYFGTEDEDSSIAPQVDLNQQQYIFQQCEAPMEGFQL

| Binder | binding result [1] | binding result [2] |
| --- | --- | --- |
| GST-HPV11 E2 (natural protein) MEAIAKRLDACQDQLLELYEENSIDIHKHIMHWKCIRLESVLLHKAKQMGLSHIGLQVVPPLTVSETKGHNAIEMQMHLESLAKTQYGVEPWTLQDTSYEMWLTPPKRCFKKQGNTVEVKFDGCEDNVMEYVVWTHIYLQDNDSWVKVTSSVDAKGIYYTCGQFKTYYVNFNKEAQKYGSTNHWEVCYGSTVICSPASVSSTVREVSIAEPTTYTPAQTTAPTVSACTTEDGVSAPPRKRARGPSTNNTLCVANIRSVDSTINNIVTDNYNKHQRRNNCHSAATPIVQLQGDSNCLKCFRYRLNDKYKHLFELASSTWHWASPEAPHKNAIVTLTYSSEEQRQQFLNSVKIPPTIRHKVGFMSLHLL | binds | binds |
| GST-HPV16 E2 (natural protein) METLCQRLNVCQDKILTHYENDSTDLRDHIDYWKHMRLECAIYYKAREMGFKHINHQVVPTLAVSKNKALQAIELQLTLETIYNSQYSNEKWTLQDVSLEVYLTAPTGCIKKHGYTVEVQFDGDICNTMHYTNWTHIYICEEASVTVVEGQVDYYGLYYVHEGIRTYFVQFKDDAEKYSKNKVWEVHAGGQVILCPTSVFSSNEVSSPEIIRQHLANHPAATHTKAVALGTEETQTTIQRPRSEPDTGNPCHTTKLLHRDSVDSAPILTAFNSSHKGRINCNSNTTPIVHLKGDANTLKCLRYRFKKHCTLYTAVSSTWHWTGHNVKHKSAIVTLTYDSEWQRDQFLSQVKIPKTITVSTGFMSI | – | binds |
